First the molecules themselves.
B1: DFFB (parent)
chain: TLVEAIKEQDGREVDWEYFYGLLF
B2: C10orf62 (parent)
chain: RALEEVEMKLQKNFLTQRENTIAG

The text below walks through data of the supplement of paper PMC10567573.
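Also: lentivirally expressed fusions sorted by FACS into six bins by GFP to DsRed ratio, PSI derived from sequencing read proportions per bin multiplied by bin number.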

The variants in one data set derive from B1. Description: protein stability index of a GFP-peptide fusion (GPS, HEK-293T) (PSI 1-6); higher = more stable. The following applies: c terminus: a fixed tail appended.
Take TLVEAIAEQDGREVDWEYFYGLLF [K7A]: the protein stability index was 2.31.

Take TLVEAIIEQDGREVDWEYFYGLLF [K7I]: the protein stability index was found to be 2.28.

With TLVEAIREQDGREVDWEYFYGLLF [K7R], the protein stability index is 1.03.

For TLVEAIMEQDGREVDWEYFYGLLF [K7M], the protein stability index came to 1.72.

TLVEAISEQDGREVDWEYFYGLLF [K7S]: the protein stability index stood at 1.31.

On to TLVEAIFEQDGREVDWEYFYGLLF [K7F], for which the protein stability index came to 2.99.

For the variant TLVEAIYEQDGREVDWEYFYGLLF [K7Y], the protein stability index was found to be 3.52.

For the variant TLVEAINEQDGREVDWEYFYGLLF [K7N], the protein stability index is 1.51.

Take TLVEAIEEQDGREVDWEYFYGLLF [K7E]: the protein stability index stood at 2.34.

Turning to TLVEAIDEQDGREVDWEYFYGLLF [K7D], the protein stability index was found to be 1.58.

For the variant TLVEAIKEADGREVDWEYFYGLLF [Q9A], the protein stability index was 1.37.

In the case of TLVEAIKEDDGREVDWEYFYGLLF [Q9D], the protein stability index turned out to be 1.97.

Take TQVEAIKEQDGREVDWEYFYGLLF [L2Q]: the protein stability index worked out at 1.41.

Regarding TDVEAIKEQDGREVDWEYFYGLLF [L2D], the protein stability index worked out at 2.17.

With TGVEAIKEQDGREVDWEYFYGLLF [L2G], the protein stability index turned out to be 2.5.

With TYVEAIKEQDGREVDWEYFYGLLF [L2Y], the protein stability index turned out to be 1.71.

On to TWVEAIKEQDGREVDWEYFYGLLF [L2W], for which the protein stability index is 1.92.

Consider TFVEAIKEQDGREVDWEYFYGLLF [L2F], for which the protein stability index is 1.95.

For TPVEAIKEQDGREVDWEYFYGLLF [L2P], the protein stability index amounted to 2.41.

With TEVEAIKEQDGREVDWEYFYGLLF [L2E], the protein stability index came to 3.08.

On to TIVEAIKEQDGREVDWEYFYGLLF [L2I], for which the protein stability index is 2.35.

Take TSVEAIKEQDGREVDWEYFYGLLF [L2S]: the protein stability index turned out to be 3.15.

Take TNVEAIKEQDGREVDWEYFYGLLF [L2N]: the protein stability index turned out to be 2.31.

Regarding TAVEAIKEQDGREVDWEYFYGLLF [L2A], the protein stability index was 3.03.

As for TMVEAIKEQDGREVDWEYFYGLLF [L2M], the protein stability index turned out to be 2.15.

As to TTVEAIKEQDGREVDWEYFYGLLF [L2T], the protein stability index turned out to be 2.2.

On to TCVEAIKEQDGREVDWEYFYGLLF [L2C], for which the protein stability index stood at 2.16.

As to THVEAIKEQDGREVDWEYFYGLLF [L2H], the protein stability index worked out at 1.92.

On to TRVEAIKEQDGREVDWEYFYGLLF [L2R], for which the protein stability index was 2.77.

On to TVVEAIKEQDGREVDWEYFYGLLF [L2V], for which the protein stability index turned out to be 2.4.

Consider TLVEAIKSQDGREVDWEYFYGLLF [E8S], for which the protein stability index stood at 1.72.

For the variant TLVEAIKQQDGREVDWEYFYGLLF [E8Q], the protein stability index was 1.43.

In the case of TLVEAIKDQDGREVDWEYFYGLLF [E8D], the protein stability index came out at 2.08.

As to TLVEAIKIQDGREVDWEYFYGLLF [E8I], the protein stability index worked out at 1.3.

As to TLVEAIKRQDGREVDWEYFYGLLF [E8R], the protein stability index worked out at 2.67.

Take TLVEAIKAQDGREVDWEYFYGLLF [E8A]: the protein stability index is 1.88.

Turning to TLVEAIKYQDGREVDWEYFYGLLF [E8Y], the protein stability index was 2.48.

On to TLVEAIKLQDGREVDWEYFYGLLF [E8L], for which the protein stability index is 2.82.

As to TLVEAIKFQDGREVDWEYFYGLLF [E8F], the protein stability index came to 1.1.

For the variant TLVEAIKMQDGREVDWEYFYGLLF [E8M], the protein stability index was 1.62.

Take TLVEAIKNQDGREVDWEYFYGLLF [E8N]: the protein stability index was determined as 2.53.

For the variant TLVEAIKPQDGREVDWEYFYGLLF [E8P], the protein stability index came to 2.38.

In the case of TLVEAIKGQDGREVDWEYFYGLLF [E8G], the protein stability index was 2.37.

On to TLVEAIKHQDGREVDWEYFYGLLF [E8H], for which the protein stability index came to 2.47.

For TLVEAIKVQDGREVDWEYFYGLLF [E8V], the protein stability index turned out to be 1.66.

As for TLVEAIKKQDGREVDWEYFYGLLF [E8K], the protein stability index is 1.83.

In another data set the parent is B2. The data set is described as above. The note with it: c terminus: a fixed tail appended.
As for RALEEVEMKLQKNFLTQRENTRAG [I22R], the protein stability index was 3.15.

Regarding RALEEVEMKLQKNFLTQRENTTAG [I22T], the protein stability index is 3.89.

With RALEEVEMKLQKNFLTQRENTYAG [I22Y], the protein stability index was 3.38.

Turning to RALEEVEMKLQKNFLTQRENTVAG [I22V], the protein stability index came to 3.59.

As to RALEEVEMKLQKNFLTQRENTMAG [I22M], the protein stability index worked out at 3.54.

Consider RALEEVEMKLQKNFLTQRENTWAG [I22W], for which the protein stability index came to 2.38.

As for RALEEVEMKLQKNFLTQRENTQAG [I22Q], the protein stability index was 4.09.

In the case of RALEEVEMKLQKNFLTQRENTNAG [I22N], the protein stability index was 3.98.

On to RALEEVEMKLQKNFLTQRENTSAG [I22S], for which the protein stability index was determined as 3.88.

As for RALEEVEMKLQKNFLTQRENTPAG [I22P], the protein stability index was 3.38.

Regarding RALEEVEMKLQKNFLTQRENTIAE [G24E], the protein stability index was 4.04.

For the variant RALEEVEMKLQKNFLTQRENTIAT [G24T], the protein stability index worked out at 3.76.

Regarding RALEEVEMKLQKNFLTQRENTIAF [G24F], the protein stability index came to 2.37.

For the variant RALEEVEMKLQKNFLTQRENTIAY [G24Y], the protein stability index was 2.18.

For RALEEVEMKLQKNFLTQRENTIAN [G24N], the protein stability index stood at 3.45.

For the variant RALEEVEMKLQKNFLTQRENTIAD [G24D], the protein stability index was 4.37.

Turning to RALEEVEMKLQKNFLTQRENTIAL [G24L], the protein stability index was 2.65.

Take RALEEVEMKLQKNFLTQRENTIAI [G24I]: the protein stability index amounted to 2.31.

RALEEVEMKLQKNFLTQRENTIAH [G24H]: the protein stability index came to 3.07.

Consider RALEEVEMKLQKNFLTQRENTIAC [G24C], for which the protein stability index was found to be 3.23.

In the case of RALEEVEMKLQKNFLTQRENTIAR [G24R], the protein stability index is 3.5.

Turning to RALEEVEMKLQKNFLTQRENTIAA [G24A], the protein stability index amounted to 3.4.

On to RALEEVEMKLQKNFLTQRENTIAW [G24W], for which the protein stability index is 3.48.

RALEEVEMKLQKNFLTQRENTIAS [G24S]: the protein stability index amounted to 3.43.

For the variant RALEEVEMKLQKNFLTQRENTIAP [G24P], the protein stability index worked out at 3.71.

With RALEEVEMKLQKNFLTQRENTIAV [G24V], the protein stability index came out at 2.85.

With RALEEVEMKLQKNFLTQRENTIAM [G24M], the protein stability index came to 3.08.

Consider RALEEVEMKLQKNFLTQRENTIAQ [G24Q], for which the protein stability index was determined as 3.6.

In the case of RALEEVEMKLQKNFLTQRENTIAK [G24K], the protein stability index worked out at 4.19.

With RALEEVEMKLQKNFLTQRENTIKG [A23K], the protein stability index came to 4.31.

As to RALEEVEMKLQKNFLTQRENTIIG [A23I], the protein stability index amounted to 3.02.

RALEEVEMKLQKNFLTQRENTIHG [A23H]: the protein stability index worked out at 3.19.

Consider RALEEVEMKLQKNFLTQRENTIWG [A23W], for which the protein stability index amounted to 2.07.

As for RALEEVEMKLQKNFLTQRENTIMG [A23M], the protein stability index turned out to be 3.05.

As for RALEEVEMKLQKNFLTQRENTIFG [A23F], the protein stability index was found to be 2.66.

Turning to RALEEVEMKLQKNFLTQRENTIRG [A23R], the protein stability index was 3.51.

For RALEEVEMKLQKNFLTQRENTIDG [A23D], the protein stability index was determined as 4.19.

As to RALEEVEMKLQKNFLTQRENTIYG [A23Y], the protein stability index amounted to 2.91.

RALEEVEMKLQKNFLTQRENTIQG [A23Q]: the protein stability index was determined as 3.64.

Regarding RALEEVEMKLQKNFLTQRENTILG [A23L], the protein stability index came out at 3.02.

Regarding RALEEVEMKLQKNFLTQRENTIEG [A23E], the protein stability index was found to be 4.28.

For RALEEVEMKLQKNFLTQRENTING [A23N], the protein stability index worked out at 3.2.

Take RALEEVEMKLQKNFLTQRENTITG [A23T]: the protein stability index was determined as 3.67.

For the variant RALEEVEMKLQKNFLTQRENTIGG [A23G], the protein stability index was found to be 3.41.

On to RALEEVEMKLQKNFLTQRENTIPG [A23P], for which the protein stability index was determined as 3.93.

As for RALEEVEMKLQKNFLTQRENTICG [A23C], the protein stability index is 3.36.

For RALEEVEMKLQKNFLTQRENTIVG [A23V], the protein stability index is 3.44.

As to RALEEVEMKLQKNFLTQRENTISG [A23S], the protein stability index is 3.42.
